Measured values from patent publication US20210371461.

Test system: MePEG2-IEGR (TFA salt)

Row | Substance | Kcat (Vmax/[FXa]) | luminescence signal (RLU) from substrate cleavage, 80 nM enzyme | luminescence signal (RLU) from substrate cleavage, 52 nM enzyme
1 | Factor Xa | Kcat=Vmax/[FXa]=1.05×10^14 s^-1 | A concentration of 80 nm FXa yielded a signal of 1.000.000 RLU | 
2 | thrombin |  |  | 52 nM thrombin yielded ˜30.000 RLU
